Results: PMC4366370, “Overexpression of a Novel Thermostable and Chloride-Tolerant Laccase from Thermus thermophilus SG0.5JP17-16 in Pichia pastoris and Its Application in Synthetic Dye Decolorization” (PLoS ONE, 2015)

Experiments:
[1] = system: COc1cc(C=NN=Cc2cc(OC)c(O)c(OC)c2)cc(OC)c1O; experiment: purified protein; conditions: optimal pH 6.0, 90°C
COc1ccccc1O = experiment: purified protein; conditions: optimal pH 7.5, 90°C

LacTT (Thermus thermophilus SG0.5JP17-16)
Km [1]: 27.0 ± 1.5 µM
kcat [1]: 1 ± 0.061 s⁻¹
kcat/Km [1]: 37000 ± 2700 M⁻¹ s⁻¹
Km (COc1ccccc1O): 363.3 ± 29.1 µM
kcat (COc1ccccc1O): 4.34 ± 0.216 s⁻¹
kcat/Km (COc1ccccc1O): 12000 ± 1000 M⁻¹ s⁻¹
